The values that follow are results of earlier work, collected in paper PMC3529988.

pKd: −log10 of the molar value.

The target in this data set is E2F TD (Homo sapiens) (UniProt Q01094).
Chain of UniProt Q01094 (Q01094 368-437): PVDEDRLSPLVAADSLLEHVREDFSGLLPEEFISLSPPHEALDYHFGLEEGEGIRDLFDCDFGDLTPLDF

Rb pocket (from UniProt P06400): the negative logarithm of the Kd (pKd) was 7.30.

Broadly, the pKd is −log10 of the Kd, conventionally taken in molar units.
